From US10428140B2, “Anti-EphA4 antibody” (EISAI R&D MANAGEMENT CO., LTD., priority 2015, dated 2019)

Legend:
human EphA4 = biological target: T1, human EphA4 (Homo sapiens, UniProt P54764); experiment: Affinity of humanized antibodies by SPR (Biacore T200); assay type: binding; details: human EphA4 extracellular region-SEAP-His; for ka / kd: 1:1 binding model; for Kd: KD=kd/ka
T1 construct: made in house; not restated for the human SEAP-His protein
In short: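 Humanized antibodies captured on protein A chip (antibody A via immobilized rat anti-mouse IgG1) at about 30 to 60 RU in HBS-EP; human EphA4 extracellular region-SEAP-His injected single-cycle at 0.6 to 50 nM, 120 s association, 900 s dissociation. KD = kd/ka from 1:1 binding fits.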

[1] = biological target: T2, human EphA4 (binding to human Ephrin A5) (Homo sapiens, UniProt P54764); experiment: Human EphA4-human ligand binding inhibition ELISA of humanized antibodies (biotinylated Ephrin A5-Fc); details: biotinylated human Ephrin A5-Fc 0.7 nM
T2 construct: made in house; not restated for the human SEAP-His protein
In short: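 Wells coated with anti-alkaline phosphatase antibody captured human EphA4 extracellular region-SEAP-His at 10 nM. Biotinylated human Ephrin A5-Fc (0.7 nM) and serially diluted humanized antibody (0-3000 nM) were added together for 1 h at room temperature. Bound ligand was detected with HRP-streptavidin and TMBZ at A450.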

human EphA5 = biological target: T3, human EphA5 (Homo sapiens, UniProt P54756); experiment: Selectivity ELISA of humanized antibodies for human Eph receptor; assay type: binding; details: coated protein 1 nM
T3 construct: a protein of the extracellular region of each human Eph receptor fused with the SEAP protein and the His tag; made in house; host or cells: Expi293F cells (culture supernatant)
In short: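 Read-out is A450 after TMB development stopped with 1N H2SO4. Plates bore anti-His-captured human Eph extracellular region-SEAP-His proteins at 1 nM final, made in Expi293F cells. Humanized antibody binding ran 1 h at room temperature before HRP-labeled anti-IgG detection.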

T2 sequence (P54764 20-547): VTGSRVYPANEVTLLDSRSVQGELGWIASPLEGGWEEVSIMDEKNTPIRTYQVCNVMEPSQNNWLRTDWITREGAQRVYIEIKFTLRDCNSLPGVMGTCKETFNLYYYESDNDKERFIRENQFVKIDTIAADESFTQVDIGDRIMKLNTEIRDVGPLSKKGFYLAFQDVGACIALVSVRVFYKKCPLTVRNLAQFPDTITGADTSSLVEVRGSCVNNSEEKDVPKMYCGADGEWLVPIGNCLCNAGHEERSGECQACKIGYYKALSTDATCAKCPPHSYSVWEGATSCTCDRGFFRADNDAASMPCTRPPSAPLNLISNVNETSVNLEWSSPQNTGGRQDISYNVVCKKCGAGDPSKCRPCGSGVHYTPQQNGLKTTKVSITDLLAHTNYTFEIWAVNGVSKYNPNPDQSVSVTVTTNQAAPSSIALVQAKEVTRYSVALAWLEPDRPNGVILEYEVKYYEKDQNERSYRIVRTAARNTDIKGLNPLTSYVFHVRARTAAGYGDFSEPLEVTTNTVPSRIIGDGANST
T1 sequence (P54764 20-547): as above
T3 sequence (P54756 25-573 limits assumed): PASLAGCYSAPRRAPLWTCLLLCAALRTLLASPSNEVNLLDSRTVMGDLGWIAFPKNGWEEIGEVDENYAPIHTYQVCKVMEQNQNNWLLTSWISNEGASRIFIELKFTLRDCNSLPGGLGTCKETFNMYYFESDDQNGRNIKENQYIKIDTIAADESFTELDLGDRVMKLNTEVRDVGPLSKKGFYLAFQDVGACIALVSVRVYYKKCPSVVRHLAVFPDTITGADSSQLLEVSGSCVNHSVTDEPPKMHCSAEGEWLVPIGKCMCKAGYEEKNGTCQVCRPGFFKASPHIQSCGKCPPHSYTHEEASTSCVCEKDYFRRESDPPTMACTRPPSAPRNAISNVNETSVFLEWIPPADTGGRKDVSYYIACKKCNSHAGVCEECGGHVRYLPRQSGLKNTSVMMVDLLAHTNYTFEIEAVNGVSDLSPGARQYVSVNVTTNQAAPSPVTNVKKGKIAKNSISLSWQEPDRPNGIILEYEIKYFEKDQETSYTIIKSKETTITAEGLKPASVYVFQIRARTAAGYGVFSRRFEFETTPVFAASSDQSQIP

Molecule	ka (human EphA4) [M⁻¹ s⁻¹]	kd (human EphA4) [s⁻¹]	Kd (human EphA4) [nM]	IC50 [1] [nM]	hEphA5-SEAP-: absorbance at 450 nm, percentage with respect to hEphA4-SEAP-His as 100% (human EphA5) [%]
67 (antibody, V domains shown, synthetic humanized antibody heavy chain variable region sequence; synthetic humanized antibody light chain variable region sequence) VH: QIQLVQSGSELKKPGASVKVSCKASGYTFTDYSMHWVRQAPGQGLKWMGWINTETGEPTYAQGFTGRFVFSLDTSVSTAYLQISSLKAEDTAVYYCARIPLYYYGSRYWYFDVWGQGTTVTVSS VL: DIQMTQSPSSLSASVGDRVTITCRASENIYRNLAWYQQKPGKAPKLLVYAATNLADGVPSRFSGSGSGTDYTLTISSLQPEDFATYYCQHFWGTPWTFGQGTKVEIK	330000	0.00035	1.1	4.4	4.8
77 (antibody, V domains shown, synthetic humanized antibody heavy chain variable region sequence; synthetic humanized antibody light chain variable region sequence) VH: QVQLVQSGSELKKPGASVKVSCKASGYTFTDYSMHWVRQAPGQGLEWMGWINTETGEPTYADDFKGRFVFSLDTSVSTAYLQISSLKAEDTAVYYCARIPLYYYGSRYWYFDVWGQGTTVTVSS VL: DIQMTQSPSSLSASVGDRVTITCRASENIYRNLAWYQQKPGKAPKLLVYAATNLADGVPSRFSGSGSGTDYTLTISSLQPEDFATYYCQHFWGTPWTFGQGTKVEIK	410000	0.00058	1.4	3.5	4.4
78 (antibody, V domains shown, synthetic humanized antibody heavy chain variable region sequence; synthetic humanized antibody light chain variable region sequence) VH: QVQLVQSGSELKKPGASVKVSCKASGYTFTDYSMHWVRQAPGQGLKWMGWINTETGEPTYADDFKGRFVFSLDTSVSTAYLQISSLKAEDTAVYYCARIPLYYYGSRYWYFDVWGQGTTVTVSS VL: DIQMTQSPSSLSASVGDRVTITCRASENIYRNLAWYQQKPGKAPKLLVYAATNLADGVPSRFSGSGSGTDYTLTISSLQPEDFATYYCQHFWGTPWTFGQGTKVEIK	340000	0.00039	1.1	2.8	5.1
